Reference: patent publication US20250076311A1 (Chugai, published 2025)

T1: cynomolgus monkey FcγRIIa1 extracellular domain with C-terminal His-tag (cynomolgus monkey)
T1 construct: also called cyno FcgRIIa1; cynoFcγRIIa1; not shown: His-tag added to the C-terminus
T1 chain: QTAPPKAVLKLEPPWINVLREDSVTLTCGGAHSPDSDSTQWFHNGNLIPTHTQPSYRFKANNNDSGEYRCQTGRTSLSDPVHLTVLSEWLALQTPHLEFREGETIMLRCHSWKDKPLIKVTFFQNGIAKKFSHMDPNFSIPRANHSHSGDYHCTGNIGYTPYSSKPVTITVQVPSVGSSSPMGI

T2: cynomolgus monkey FcγRIIa3 extracellular domain with C-terminal His-tag (cynomolgus monkey)
T2 construct: also called cyno FcgRIIa3; cynoFcγRIIa3; not shown: His-tag added to the C-terminus
T2 chain: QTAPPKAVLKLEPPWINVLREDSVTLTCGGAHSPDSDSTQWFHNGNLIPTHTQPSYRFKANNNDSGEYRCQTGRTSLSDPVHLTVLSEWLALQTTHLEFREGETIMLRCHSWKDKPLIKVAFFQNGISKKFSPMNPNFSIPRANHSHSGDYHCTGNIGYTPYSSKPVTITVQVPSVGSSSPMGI

T3: human FcγRIIb extracellular domain with C-terminal His-tag (human, UniProt P31994 43-217)
T3 construct: also called human FcgRIIb; not shown: His-tag added to the C-terminus
T3 sequence: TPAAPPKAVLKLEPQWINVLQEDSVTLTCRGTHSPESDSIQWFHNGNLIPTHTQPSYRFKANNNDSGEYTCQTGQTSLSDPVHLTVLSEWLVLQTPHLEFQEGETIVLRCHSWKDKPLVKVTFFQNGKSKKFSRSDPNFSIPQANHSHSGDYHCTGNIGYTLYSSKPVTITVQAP

T4: cynomolgus monkey FcγRIIIaS extracellular domain with C-terminal His-tag (cynomolgus monkey, UniProt Q8SPW2 21-206 at identity 1.00))
T4 construct: also called cyno FcγRIIIaS; FcgRIIIaS
T4 chain: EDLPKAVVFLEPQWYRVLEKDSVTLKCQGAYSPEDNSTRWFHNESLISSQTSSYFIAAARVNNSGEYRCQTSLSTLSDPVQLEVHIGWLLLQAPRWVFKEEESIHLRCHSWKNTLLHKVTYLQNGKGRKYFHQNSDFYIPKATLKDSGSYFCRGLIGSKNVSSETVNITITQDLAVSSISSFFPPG

T5: cynomolgus monkey FcγRIIa3 extracellular domain with C-terminal His-tag (cynomolgus monkey)
T5 construct: also called cyno FcγRIIa3; FcgRIIa3
T5 chain: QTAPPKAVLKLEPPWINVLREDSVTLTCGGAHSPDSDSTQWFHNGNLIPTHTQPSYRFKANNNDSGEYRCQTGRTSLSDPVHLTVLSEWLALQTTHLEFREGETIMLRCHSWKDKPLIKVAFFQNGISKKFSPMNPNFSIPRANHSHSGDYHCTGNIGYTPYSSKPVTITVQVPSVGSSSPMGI

T6: human FcγRIIaR extracellular domain with C-terminal His-tag (human, UniProt P12318 34-217)
T6 construct: also called human FcγRIIa (type R); FcgRIIaR
T6 chain: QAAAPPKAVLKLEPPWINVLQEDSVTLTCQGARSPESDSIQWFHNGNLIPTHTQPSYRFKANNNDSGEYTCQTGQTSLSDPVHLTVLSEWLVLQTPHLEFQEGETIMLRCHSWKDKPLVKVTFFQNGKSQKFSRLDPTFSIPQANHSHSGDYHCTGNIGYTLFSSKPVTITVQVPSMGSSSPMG


Assays:
[1] = target: T7, cynomolgus monkey FcγRIIIaS extracellular domain with C-terminal His-tag (cynomolgus monkey, UniProt A3RFZ7 21-206 (rhesus entry)); assay: SPR (BIACORE), antibody captured, FcgR analyte
T7 construct: also called cyno FcgRIIIaS; cynoFcγRIIIaS; not shown: His-tag added to the C-terminus

[2] = target: T1, cynomolgus monkey FcγRIIa1 …; assay: SPR (BIACORE), antibody captured, FcgR analyte
[3] = target: T2, cynomolgus monkey FcγRIIa3 …; assay: SPR (BIACORE), antibody captured, FcgR analyte
[4] = target: T3, human FcγRIIb extracellular domain with …; assay: SPR (BIACORE), antibody captured, FcgR analyte
[5] = target: T4, cynomolgus monkey FcγRIIIaS …; assay: SPR; KD of SG1 / KD of variant
Protocol: (§1) The kinetic analysis of interactions between these antibodies and FcγR was carried out using BIACORE® T200 or BIACORE® 4000 (GE Healthcare). HBS-EP+ (GE Healthcare) was used as the running buffer, and the measurement temperature was set to 25° C. […] After the measurement, the antibody captured on the chip was washed off by allowing reaction with 10 mM glycine-HCl, pH1.5 and 25 mM NaOH so that the chip was regenerated and used repeatedly. The sensorgrams obtained as measurement results were analyzed by the 1:1 Langmuir binding model using the BIACORE® Evaluation Software to calculate the binding rate constant ka (L/mol/s) and dissociation rate constant kd (1/s), and the dissociation constant KD (mol/L) was calculated from these values. […] Regarding such interactions, KD values were calculated using the following 1:1 binding model described in BIACORE® T100 Software Handbook BR1006-48 Edition AE.

[6] = target: T5, cynomolgus monkey FcγRIIa3 …; assay: SPR; KD of SG1 / KD of variant
Protocol: as §1

[7] = target: T6, human FcγRIIaR extracellular domain …; assay: SPR; KD of SG1 / KD of variant
Protocol: as §1

| KD fold (SG1 = 1) [5] [fold] | KD fold (SG1 = 1) [6] [fold] | Binder | other results |
| --- | --- | --- | --- |
|  |  | M103205H795-MY206/M103202L889-SK1 (antibody, human IgG1, kappa, name in EU numbering, Fc variant of MS1032LO06-SG1; positions in EU numbering) heavy: QVTLKESGPVLVKPTETLTLTCTVSGIDLSHDDISWVRQAPGKGLEWVGIISYAGSTYYASWAKGRLTISKDTSKNQVVLTMTNMDPVDTATYYCARGVPAYSHGGDLWGQGTLVTVSSASTKGPSVFPLAPSSKSTSGGTAALGCLVKDYFPEPVTVSWNSGALTSGVHTFPAVLQSSGLYSLSSVVTVPSSSLGTQTYICNVNHKPSNTKVDKKVEPKSCDKTHTCPPCPAPELLNGPVVFLFPPKPKDTLMISRTPEVTCVVVDVSDEDPEVKFNWYVDGVEVHNAKTKPREELYNSTYRVVSVLTVLHQDWLNGKEYKCKVSNKALPKPIEKTISKAKGQPREPQVYTLPPSREEMTKNQVSLTCLVKGFYPSDIAVEWESNGQPENNYKTTPPVLDSDGSFFLYSKLTVDKSRWQQGNVFSCSVMHEALHNHYTQKSLSLSP light: DIVMTQSPATLSLSPGERATLSCTSSQSVYHANWLSWFQQKPGQPPKLLIYWASTLAYGVPSRFSGSGSGTDFTLTISSLQPEDAATYYCAGGYGGGRYAFGQGTKVEIKRTVAAPSVFIFPPSDEQLKSGTASVVCLLNNFYPREAKVQWKVDNALQSGNSQESVTEQDSKDSTYSLSSTLTLSKADYEKHKVYACEVTHQGLSSPVTKSFNRGEC | Kd [1]: 3500 nM; Kd [2]: 810 nM; Kd [3]: 3000 nM; Kd [4]: 900 nM |
| 0.2 | 3.7 | M103205H795-MY280 (heavy chain) with M103202L889-SK1 (light chain) (antibody, human IgG1, kappa, name in EU numbering, Substitutions introduced into M103205H795-SG1; positions in EU numbering) heavy: QVTLKESGPVLVKPTETLTLTCTVSGIDLSHDDISWVRQAPGKGLEWVGIISYAGSTYYASWAKGRLTISKDTSKNQVVLTMTNMDPVDTATYYCARGVPAYSHGGDLWGQGTLVTVSSASTKGPSVFPLAPSSKSTSGGTAALGCLVKDYFPEPVTVSWNSGALTSGVHTFPAVLQSSGLYSLSSVVTVPSSSLGTQTYICNVNHKPSNTKVDKKVEPKSCDKTHTCPPCPAPELLVGPSVFLFPPKPKDTLMISRTPEVTCVVVDVSDEDPEVKFNWYVDGVEVHNAKTKPREELYNSTYRVVSVLTVLHQDWLNGKEYKCKVSNKALPKPIEKTISKAKGQPREPQVYTLPPSREEMTKNQVSLTCLVKGFYPSDIAVEWESNGQPENNYKTTPPVLDSDGSFFLYSKLTVDKSRWQQGNVFSCSVMHEALHNHYTQKSLSLSP light: DIVMTQSPATLSLSPGERATLSCTSSQSVYHANWLSWFQQKPGQPPKLLIYWASTLAYGVPSRFSGSGSGTDFTLTISSLQPEDAATYYCAGGYGGGRYAFGQGTKVEIKRTVAAPSVFIFPPSDEQLKSGTASVVCLLNNFYPREAKVQWKVDNALQSGNSQESVTEQDSKDSTYSLSSTLTLSKADYEKHKVYACEVTHQGLSSPVTKSFNRGEC |  |
| 0.09 | 6.8 | M103205H795-MY227 (heavy chain) with M103202L889-SK1 (light chain) (antibody, human IgG1, kappa, name in EU numbering, Substitutions introduced into M103205H795-SG1; positions in EU numbering) heavy: QVTLKESGPVLVKPTETLTLTCTVSGIDLSHDDISWVRQAPGKGLEWVGIISYAGSTYYASWAKGRLTISKDTSKNQVVLTMTNMDPVDTATYYCARGVPAYSHGGDLWGQGTLVTVSSASTKGPSVFPLAPSSKSTSGGTAALGCLVKDYFPEPVTVSWNSGALTSGVHTFPAVLQSSGLYSLSSVVTVPSSSLGTQTYICNVNHKPSNTKVDKKVEPKSCDKTHTCPPCPAPELLGYPSVFLFPPKPKDTLMISRTPEVTCVVVDVSDEDPEVKFNWYVDGVEVHNAKTKPREEQYNSTYRVVSVLTVLHQDWLNGKEYKCKVSNKALPKPIEKTISKAKGQPREPQVYTLPPSREEMTKNQVSLTCLVKGFYPSDIAVEWESNGQPENNYKTTPKVLDSDGSFFLYSKLTVDKSRWQQGNVFSCSVMHEALHNHYTQKSLSLSP light: DIVMTQSPATLSLSPGERATLSCTSSQSVYHANWLSWFQQKPGQPPKLLIYWASTLAYGVPSRFSGSGSGTDFTLTISSLQPEDAATYYCAGGYGGGRYAFGQGTKVEIKRTVAAPSVFIFPPSDEQLKSGTASVVCLLNNFYPREAKVQWKVDNALQSGNSQESVTEQDSKDSTYSLSSTLTLSKADYEKHKVYACEVTHQGLSSPVTKSFNRGEC |  |
|  | 5.9 | M103205H795-MY321 (heavy chain) with M103202L889-SK1 (light chain) (antibody, human IgG1, kappa, name in EU numbering, Substitutions introduced into M103205H795-SG1; positions in EU numbering) heavy: QVTLKESGPVLVKPTETLTLTCTVSGIDLSHDDISWVRQAPGKGLEWVGIISYAGSTYYASWAKGRLTISKDTSKNQVVLTMTNMDPVDTATYYCARGVPAYSHGGDLWGQGTLVTVSSASTKGPSVFPLAPSSKSTSGGTAALGCLVKDYFPEPVTVSWNSGALTSGVHTFPAVLQSSGLYSLSSVVTVPSSSLGTQTYICNVNHKPSNTKVDKKVEPKSCDKTHTCPPCPAPELLHGPSVFLFPPKPKDTLMISRTPEVTCVVVDVSDEDPEVKFNWYVDGVEVHNAKTKPREEQYNSTYRVVSVLTVLHQDWLNGKEYKCKVSNKALPKPIEKTISKAKGQPREPQVYTLPPSREEMTKNQVSLTCLVKGFYPSDIAVEWESNGQPENNYKTTPMVLDSDGSFFLYSKLTVDKSRWQQGNVFSCSVMHEALHNHYTQKSLSLSP light: DIVMTQSPATLSLSPGERATLSCTSSQSVYHANWLSWFQQKPGQPPKLLIYWASTLAYGVPSRFSGSGSGTDFTLTISSLQPEDAATYYCAGGYGGGRYAFGQGTKVEIKRTVAAPSVFIFPPSDEQLKSGTASVVCLLNNFYPREAKVQWKVDNALQSGNSQESVTEQDSKDSTYSLSSTLTLSKADYEKHKVYACEVTHQGLSSPVTKSFNRGEC |  |
| 0.09 | 8.9 | M103205H795-MY229 (heavy chain) with M103202L889-SK1 (light chain) (antibody, human IgG1, kappa, name in EU numbering, Substitutions introduced into M103205H795-SG1; positions in EU numbering) heavy: QVTLKESGPVLVKPTETLTLTCTVSGIDLSHDDISWVRQAPGKGLEWVGIISYAGSTYYASWAKGRLTISKDTSKNQVVLTMTNMDPVDTATYYCARGVPAYSHGGDLWGQGTLVTVSSASTKGPSVFPLAPSSKSTSGGTAALGCLVKDYFPEPVTVSWNSGALTSGVHTFPAVLQSSGLYSLSSVVTVPSSSLGTQTYICNVNHKPSNTKVDKKVEPKSCDKTHTCPPCPAPELLGYPSVFLFPPKPKDTLMISRTPEVTCVVVDVSDEDPEVKFNWYVDGVEVHNAKTKPREELYNSTYRVVSVLTVLHQDWLNGKEYKCKVSNKALPKPIEKTISKAKGQPREPQVYTLPPSREEMTKNQVSLTCLVKGFYPSDIAVEWESNGQPENNYKTTPKVLDSDGSFFLYSKLTVDKSRWQQGNVFSCSVMHEALHNHYTQKSLSLSP light: DIVMTQSPATLSLSPGERATLSCTSSQSVYHANWLSWFQQKPGQPPKLLIYWASTLAYGVPSRFSGSGSGTDFTLTISSLQPEDAATYYCAGGYGGGRYAFGQGTKVEIKRTVAAPSVFIFPPSDEQLKSGTASVVCLLNNFYPREAKVQWKVDNALQSGNSQESVTEQDSKDSTYSLSSTLTLSKADYEKHKVYACEVTHQGLSSPVTKSFNRGEC | KD fold (SG1 = 1) [7]: 13.6 fold |
